B1: Thyroid hormone receptor beta (Homo sapiens), P10828-1 (parent)
chain: MTPNSMTENGLTAWDKPKHCPDREHDWKLVGMSEACLHRKSHSERRSTLKNEQSSPHLIQTTWTSSIFHLDHDDVNDQSVSSAQTFQTEEKKCKGYIPSYLDKDELCVVCGDKATGYHYRCITCEGCKGFFRRTIQKNLHPSYSCKYEGKCVIDKVTRNQCQECRFKKCIYVGMATDLVLDDSKRLAKRKLIEENREKRRREELQKSIGHKPEPTDEEWELIKTVTEAHVATNAQGSHWKQKRKFLPEDIGQAPIVNAPEGGKVDLEAFSHFTKIITPAITRVVDFAKKLPMFCELPCEDQIILLKGCCMEIMSLRAAVRYDPESETLTLNGEMAVTRGQLKNGGLGVVSDAIFDLGMSLSSFNLDDTEVALLQAVLLMSSDRPGLACVERIEKYQDSFLLAFEHYINYRKHHVTHFWPKLLMKVTDLRMIGACHASRFLHMKVECPTELFPPLFLEVFED

Legend:
[1] = variants of: B1; conditions: with ncor2_human NCOR2, Q9Y618
[2] = variants of: B1; conditions: with ncoa1_human NCOA1, Q15788
Chain of ncoa1_human NCOA1, Q15788 (Q15788 whole entry): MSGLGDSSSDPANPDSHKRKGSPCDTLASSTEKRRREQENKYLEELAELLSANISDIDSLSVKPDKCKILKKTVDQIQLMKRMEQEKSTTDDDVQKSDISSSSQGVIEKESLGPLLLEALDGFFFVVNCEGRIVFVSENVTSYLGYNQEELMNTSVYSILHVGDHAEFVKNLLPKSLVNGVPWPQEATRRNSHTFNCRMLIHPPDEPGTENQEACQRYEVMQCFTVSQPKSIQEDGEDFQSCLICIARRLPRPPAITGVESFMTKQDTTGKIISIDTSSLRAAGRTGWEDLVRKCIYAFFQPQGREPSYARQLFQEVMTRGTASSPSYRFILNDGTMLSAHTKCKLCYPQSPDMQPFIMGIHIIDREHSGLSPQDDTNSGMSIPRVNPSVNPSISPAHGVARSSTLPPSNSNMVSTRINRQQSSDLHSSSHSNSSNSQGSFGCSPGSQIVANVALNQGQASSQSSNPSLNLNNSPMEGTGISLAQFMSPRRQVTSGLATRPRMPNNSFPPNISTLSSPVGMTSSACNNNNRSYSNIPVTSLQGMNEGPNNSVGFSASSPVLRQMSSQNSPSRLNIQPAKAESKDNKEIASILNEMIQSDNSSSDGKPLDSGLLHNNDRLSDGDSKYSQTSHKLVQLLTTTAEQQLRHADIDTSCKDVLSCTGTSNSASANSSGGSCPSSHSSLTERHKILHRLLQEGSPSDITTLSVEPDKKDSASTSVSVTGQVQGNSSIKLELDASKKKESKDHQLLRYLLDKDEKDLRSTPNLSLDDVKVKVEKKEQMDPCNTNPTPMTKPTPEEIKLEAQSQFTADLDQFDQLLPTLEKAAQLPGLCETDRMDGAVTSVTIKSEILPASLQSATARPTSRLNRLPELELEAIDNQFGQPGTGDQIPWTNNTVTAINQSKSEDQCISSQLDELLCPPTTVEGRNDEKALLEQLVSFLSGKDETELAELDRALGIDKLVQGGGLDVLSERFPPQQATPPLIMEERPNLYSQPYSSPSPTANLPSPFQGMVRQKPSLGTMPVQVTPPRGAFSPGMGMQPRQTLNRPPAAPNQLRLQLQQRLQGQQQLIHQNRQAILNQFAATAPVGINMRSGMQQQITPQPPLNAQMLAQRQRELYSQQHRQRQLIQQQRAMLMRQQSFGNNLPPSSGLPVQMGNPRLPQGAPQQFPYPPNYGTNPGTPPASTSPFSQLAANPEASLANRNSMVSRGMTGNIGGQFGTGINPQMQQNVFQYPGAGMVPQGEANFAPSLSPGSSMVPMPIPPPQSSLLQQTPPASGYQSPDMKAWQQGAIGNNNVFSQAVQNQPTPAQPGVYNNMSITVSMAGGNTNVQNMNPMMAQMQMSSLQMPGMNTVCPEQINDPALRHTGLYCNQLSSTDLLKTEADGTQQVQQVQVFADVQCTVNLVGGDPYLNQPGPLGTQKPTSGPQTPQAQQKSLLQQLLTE

Chain of ncor2_human NCOR2, Q9Y618 (Q9Y618 whole entry): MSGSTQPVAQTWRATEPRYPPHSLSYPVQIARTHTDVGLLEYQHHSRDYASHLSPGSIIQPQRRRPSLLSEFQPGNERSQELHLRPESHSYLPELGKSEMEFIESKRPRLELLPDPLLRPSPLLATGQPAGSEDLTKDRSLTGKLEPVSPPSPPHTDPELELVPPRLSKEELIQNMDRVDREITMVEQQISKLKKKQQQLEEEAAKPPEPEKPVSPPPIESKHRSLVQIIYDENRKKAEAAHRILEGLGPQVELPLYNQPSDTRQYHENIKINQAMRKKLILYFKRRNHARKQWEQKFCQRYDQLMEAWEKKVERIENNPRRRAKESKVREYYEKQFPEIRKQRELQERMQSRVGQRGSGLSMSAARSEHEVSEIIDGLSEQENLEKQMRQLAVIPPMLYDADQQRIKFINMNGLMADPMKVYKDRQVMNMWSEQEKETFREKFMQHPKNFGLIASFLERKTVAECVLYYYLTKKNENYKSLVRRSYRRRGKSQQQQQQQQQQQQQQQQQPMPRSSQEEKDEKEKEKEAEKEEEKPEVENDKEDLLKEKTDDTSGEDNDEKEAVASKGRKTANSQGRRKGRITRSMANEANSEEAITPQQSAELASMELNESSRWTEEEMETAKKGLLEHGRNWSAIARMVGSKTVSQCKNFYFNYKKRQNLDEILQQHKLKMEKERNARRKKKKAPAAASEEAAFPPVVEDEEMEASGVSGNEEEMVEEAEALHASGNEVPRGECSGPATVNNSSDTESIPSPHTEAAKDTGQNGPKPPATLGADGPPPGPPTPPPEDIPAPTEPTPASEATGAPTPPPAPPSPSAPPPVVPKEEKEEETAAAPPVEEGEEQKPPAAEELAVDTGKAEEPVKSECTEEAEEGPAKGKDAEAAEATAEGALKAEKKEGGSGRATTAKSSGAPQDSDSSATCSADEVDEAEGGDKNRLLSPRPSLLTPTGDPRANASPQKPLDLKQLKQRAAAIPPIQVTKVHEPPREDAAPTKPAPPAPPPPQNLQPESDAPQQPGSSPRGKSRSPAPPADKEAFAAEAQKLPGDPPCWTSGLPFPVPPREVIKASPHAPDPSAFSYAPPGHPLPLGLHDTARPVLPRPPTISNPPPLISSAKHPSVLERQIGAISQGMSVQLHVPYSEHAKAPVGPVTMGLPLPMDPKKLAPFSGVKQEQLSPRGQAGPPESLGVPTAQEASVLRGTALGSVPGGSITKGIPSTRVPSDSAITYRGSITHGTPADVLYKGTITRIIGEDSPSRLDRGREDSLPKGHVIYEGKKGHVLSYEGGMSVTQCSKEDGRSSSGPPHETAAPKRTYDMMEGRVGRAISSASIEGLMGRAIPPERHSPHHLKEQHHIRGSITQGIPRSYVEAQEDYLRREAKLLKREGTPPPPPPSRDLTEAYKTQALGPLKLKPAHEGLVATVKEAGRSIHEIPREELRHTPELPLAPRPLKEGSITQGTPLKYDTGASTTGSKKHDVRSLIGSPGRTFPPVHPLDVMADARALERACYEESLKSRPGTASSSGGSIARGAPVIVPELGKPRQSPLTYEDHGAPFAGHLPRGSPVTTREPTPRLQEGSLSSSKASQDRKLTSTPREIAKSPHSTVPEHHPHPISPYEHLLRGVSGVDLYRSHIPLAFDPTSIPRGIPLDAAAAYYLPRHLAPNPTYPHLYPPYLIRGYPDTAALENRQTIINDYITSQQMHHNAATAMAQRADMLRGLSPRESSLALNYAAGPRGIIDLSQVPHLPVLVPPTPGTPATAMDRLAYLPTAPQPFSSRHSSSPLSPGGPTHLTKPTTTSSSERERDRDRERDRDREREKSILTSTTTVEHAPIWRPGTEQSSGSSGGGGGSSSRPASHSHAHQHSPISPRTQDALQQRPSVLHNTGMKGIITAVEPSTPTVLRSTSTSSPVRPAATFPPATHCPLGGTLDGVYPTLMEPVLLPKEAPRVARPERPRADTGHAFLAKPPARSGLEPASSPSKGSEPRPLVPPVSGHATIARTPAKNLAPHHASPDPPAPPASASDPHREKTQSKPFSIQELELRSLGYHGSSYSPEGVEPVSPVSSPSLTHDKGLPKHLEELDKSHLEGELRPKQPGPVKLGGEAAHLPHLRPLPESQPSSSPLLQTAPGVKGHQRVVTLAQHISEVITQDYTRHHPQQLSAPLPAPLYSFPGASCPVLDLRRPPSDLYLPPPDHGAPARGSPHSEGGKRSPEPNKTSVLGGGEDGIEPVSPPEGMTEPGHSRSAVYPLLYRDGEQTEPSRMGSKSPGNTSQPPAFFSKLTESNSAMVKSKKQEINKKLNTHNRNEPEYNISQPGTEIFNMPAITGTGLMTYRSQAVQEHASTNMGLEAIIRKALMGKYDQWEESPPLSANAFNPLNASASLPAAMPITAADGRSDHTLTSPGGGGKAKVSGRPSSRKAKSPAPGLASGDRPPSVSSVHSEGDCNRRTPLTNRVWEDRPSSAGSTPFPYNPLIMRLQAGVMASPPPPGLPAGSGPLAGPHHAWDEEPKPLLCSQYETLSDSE

| Variant | effect of a mutation on the interaction [1] | effect of a mutation on the interaction [2] |
| --- | --- | --- |
| R429Q | increasing interaction strength | increasing interaction strength |
| R383H | increasing interaction strength | increasing interaction strength |

Source: IntAct's records for PubMed 9605924
